{"source": "paper PMC8938253", "target": "rhAChE (recombinant human acetylcholinesterase) (Homo sapiens, UniProt P22303 32-614)", "sequence (P22303 32-614)": "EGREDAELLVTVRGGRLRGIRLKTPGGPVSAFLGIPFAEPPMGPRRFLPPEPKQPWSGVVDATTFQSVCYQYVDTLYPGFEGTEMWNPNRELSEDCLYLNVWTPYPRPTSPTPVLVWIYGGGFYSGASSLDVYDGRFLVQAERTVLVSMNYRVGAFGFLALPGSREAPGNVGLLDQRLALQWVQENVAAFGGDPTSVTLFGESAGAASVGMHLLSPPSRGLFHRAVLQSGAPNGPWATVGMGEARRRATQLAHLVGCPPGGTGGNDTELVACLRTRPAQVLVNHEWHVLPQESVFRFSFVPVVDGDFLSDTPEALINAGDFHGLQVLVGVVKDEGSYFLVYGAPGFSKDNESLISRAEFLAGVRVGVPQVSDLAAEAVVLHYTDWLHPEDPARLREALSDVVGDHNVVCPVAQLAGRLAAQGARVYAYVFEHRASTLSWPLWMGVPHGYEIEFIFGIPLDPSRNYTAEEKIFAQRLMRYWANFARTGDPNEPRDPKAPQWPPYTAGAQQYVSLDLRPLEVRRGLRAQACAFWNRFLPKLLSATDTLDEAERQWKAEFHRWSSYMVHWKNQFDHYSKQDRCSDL", "assay": "indirect ELISA", "data": [{"binder": "Ob2 (ssDNA) DNA: TAATACGACTCACTATAGCAATGGTACGGTACTTCCCTTCGAAAACACCCTGCCCCTCACACAAAAGTGCACGCTACTTTGCTAA", "values": [{"measurement": "Kd", "value": "0.0171 ± 0.00986", "unit": "µM"}]}]}
